The data set is described as follows: yeast display, Sf9 membrane polyspecificity reagent, FACS + sequencing; frameworks hold sequencing errors. The procedure, abridged:
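Nanobodies from a synthetic yeast display library (Saccharomyces cerevisiae BJ5465), induced 36–48 hours with galactose, were stained 1 hour at 4 °C with 10% biotinylated, detergent-solubilized Sf9 membrane reagent, enriched on streptavidin microbeads, then FACS-sorted. Anti-HA (expression) and streptavidin (reagent binding) fluorescence set low and high (top ~1%) gates. Polyreactivity labels come from the gate of origin. Genes were colony-PCR amplified, MiSeq 2 × 250 sequenced and filtered by CDR length.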
As for “QVQLVESGGGLVQAGGSLRLSCAASGSTFTRNAMGWYRQAPGKERELVAVISSRGGRTYYADSVKGRFTISRDNAKNTVYLQMNSLKPEDTAVYYCAARTWVLYTWRSYYEYYYWGQGTQVTVSS”, the “polyreactivity (PSR sort gate)” value is given as “high polyreactivity”.

For “QVQLVVSGGGLVQAGGSLRLSCAASGITFYEYAMGWYRQAPGKERELVAAISSSGCTTYYADSVKGLFTISRDNAKNTVYLQLNSLKPEDTAVYYCAVGQRFAIWGPQGSYFYFESDYWGQGTQVTVSS”, the “polyreactivity (PSR sort gate)” value is given as “low polyreactivity”.

For “QVQLVESGGGLVQAGGSLRLSCAASGRTFRTNTMGWYRQAPGKERELVAAIRYIGGSTYYADSVKGRFTISRDNAKNTFYLLMNSLKPEDTAVYYCAAYRYGSRYGYEYWGQGTQVTVSS”, the “polyreactivity (PSR sort gate)” value is given as “high polyreactivity”.

In the case of “QVQLVETGAGLVQAGGSLRLSSAASGRTLYPYAMGWSRQSPGNERELVAAISSRGGSTYYADSVKGRFTISRDIAKNTVYLQMNSLKPEDTAVYYCAKTYRKILSITGDVPWTDYYWGQGTQVTVSS”, the “polyreactivity (PSR sort gate)” value was “low polyreactivity”.

Regarding “QVQLVESGRGLVQAGGSLRLSCAASGRIIRWNAMGWYRQAPGKERELVAGISGSGGSTYYADSVKGRFTISRDNAKNTVYLQMNSLKPEDTAVYYCAADHYRSRYDYWGQGTQVTVSS”, the “polyreactivity (PSR sort gate)” value is listed as “low polyreactivity”.

Take “QVQLVESGGGLVQAGGSLRLSCAASGFIFRYYTMGWYRQAPGKERELVARISSGGSTTYADSVKGRFTISRDNAKNTVYLQMNSLKPEDTAVYYCHARVKRWYFGNANHSPEYDYWGKGTQVTVSS”: the “polyreactivity (PSR sort gate)” value was “low polyreactivity”.

“QVQLVESGGGLVQAGGSLRLSCAASGRNFSYYVMGWYRPAHGKERELVAAITSGGSTNYAHSVKGRFTISRDNAKNTVYLQMNSLKPEDTAVYYCNRAYTYINRLYGYWGQGTQVTVST”: the “polyreactivity (PSR sort gate)” value is listed as “high polyreactivity”.

As to “QVQLVESGAGLVQAAGSLRLSCAASVSTFYTYAMGRYRQAPGKERELVADIRWRGGSTNYADSVKGRFTISRDNAKNTVYLQMNSLTSEDTAVYYCALRYYYYGASYYYWGHGTQVTVSS”, the “polyreactivity (PSR sort gate)” value is listed as “high polyreactivity”.

With “QVQLQESGGGLVQAGGSLRLSCAASGSIFDYVSMGWYRQAPGEERELVVTITLGSNTYYADSVKGRFTISSDIAKNSVYLQMNSLNPEDTAVYYCAASALWGYVYPYWGLGTQVTVSS”, the “polyreactivity (PSR sort gate)” value is recorded as “high polyreactivity”.

Regarding “QVQLVESGGGLVQAGGSLRLSCAASGSIFRYYAMGWYIQAPGKERELVAAISYSGGTTYYADSVKGRFTISRDNAKNTVYLQMNSLKPEDTAVYYCAVPLIGVDGYAYDYWGQGTQVTVSS”, the “polyreactivity (PSR sort gate)” value is listed as “low polyreactivity”.

“QVQLVESGGGLVQAGGSLRLSCAASGRTFPFYAMGWYRQAPVKEREFVAAITASGDSTYYADSVKGRFTISRDNAKYTVYLQMNSLKPEDTAVYYCAADLPVWYVTRYDYWGQGTQVTVSS”: the “polyreactivity (PSR sort gate)” value is reported as “low polyreactivity”.

Regarding “QDQLVESGGGLVQAGGSLRLSCAASGRIFPWYTMGWYRQAPGKERELVAVISSGGRTHYADSVKGRFTISRDNAKNTVYLLMNSLKPEDTAVYYCAAESRYQRYDYWGQGTKVTVSS”, the “polyreactivity (PSR sort gate)” value was “high polyreactivity”.

For “QVQLVESGGGLVQAGGSLRLSCAASGFTFYSYALGWYIQAPGKERELVAAISRGGSTTYADSVKGRFTISRDNAKNTVYLQMNSLKPEDTAVYYCAARYRYRYTPYRYDYWGQGTQVTVSS”, the “polyreactivity (PSR sort gate)” value was “high polyreactivity”.

“QVQLVESGGGLVQAGGSLRLSCAASGFIFGRYAMVWYRQAPGKERHFVASISWSGGSTHYADSVKGRFTISREKAKNTVYLHMNSLKPVDTAVYYCARGFPPYRVTHMNYWGQGTLVTVSS”: the “polyreactivity (PSR sort gate)” value is “high polyreactivity”.

As to “QVQLVESGGGLVQAGGSLRLSCAASGGTLQGNAMGWYRQAPGKERELVAAISSRGGRTYYADSVKGRFTISRDNANNTVYLQMNSLKPEDTAVYYCAAVQKGDSTLLRTKGGYWGQGTQVTVSS”, the “polyreactivity (PSR sort gate)” value is “high polyreactivity”.

Turning to “QVQLVESGGGLVQAGGSLRLSCAASGRIFRPYAMGWYRQAPGKERELVARINGSGGSTYYADSVKGRFTISRDTAKNTVYFQMNSLKPEDTAVYYCNVRRIIRYLGYTHTKISWLDYWGQGTQVTVSS”, the “polyreactivity (PSR sort gate)” value is “high polyreactivity”.

“QVQLVESGGGLVQAGGSLRLSCAASGGIFRDYAMGWSRQAPGKERELVAAISRSGDSTYYADSVKGRFTISRDNAKNTVYLQMNSLKPEDTAVYSCAADWLWAWHYYGAMDYWGQGTQVTVSS”: the “polyreactivity (PSR sort gate)” value was “high polyreactivity”.

For “QVQLVESGGGLVQAGGSLRLSCAASGRTFAPYAMGWSRQAPGKEREFVAGITWSSSSTYADSVKGRFTISRDNAKNTVYLQMNSLKPEDTAVYYCAARHAKGGNRHYYWGQGTQVTVSS”, the “polyreactivity (PSR sort gate)” value is reported as “high polyreactivity”.

Turning to “QVQLEESGGGLVQAGGSLRLSCAASGYTFATYAMGWSRQAPGKERELVAAISQGGDRTNYADSVKGRFTISRDNAKITVYLQMNSLKPEDTSVYYCAVRYASRQSRFYYWGQGTQVTVSS”, the “polyreactivity (PSR sort gate)” value was “high polyreactivity”.

On to “QVQLVESGGGLVQAGGSLRLSCAASGSIFRPNAMGWYRQAPGKERELVAAITWSGDSTYYADSVKGRFTLSRDNAKNTVYRQMNSLKPVDTAVYYCATDPDYVLYRTAYYEFDYWGQGTHVTVSS”, for which the “polyreactivity (PSR sort gate)” value is on record as “low polyreactivity”.

As for “QVQLVESGGGLVQAGGSLRLSCAASGRILRVYAMGWYRQAPGKERELVAAISSGGSTNYADSVKGRFTISRDNAKNTVYLQMNSLKPEDTAVYDCAATVRGVGYRYYYWGQGTQVTVSS”, the “polyreactivity (PSR sort gate)” value is given as “high polyreactivity”.

“QVQLVESGGGLVQAGGSLRLSCAASGRTFVTNAMGWYRQAPGKERELVAAISSNGGSTYYADSVKGRFTISRDNAKNTVFLQMNSLKPEDTAVYYCNAEGQPLYVSWHDHRYIYGFDYWGQGTQVSVSS”: the “polyreactivity (PSR sort gate)” value is given as “low polyreactivity”.

In the case of “QVQLVESGGGLVQAGGSLRLSCAASGRIFGYNAMGWYRQAPGKERELVAAINSDGSKNYADSVKGRFTISRDNAKNTVYLQINSLNPEDTAVYYCAARWISVWSEGAEHDYWGQGTQVTVSS”, the “polyreactivity (PSR sort gate)” value was “low polyreactivity”.

Regarding “QLQLVESGGALVQAGGSLRLSCAASGSTFTVNGMGWYRQAPGKERELVAAIDGGDGSTYYADSVKGRFTISRDNAKNTVYLQMNSLKPEDTAVYYCAADPPGFTQYGYWGQGTKVTVSS”, the “polyreactivity (PSR sort gate)” value is on record as “low polyreactivity”.

On to “QVQLVESGGGLVQAGGSLRLSCAASGITFYGYAMGWYRHAPGKERELVATISSGGGTNYADSVKGRFTISRDNAKNTVYLQMNSLKPEDSAVYYCATDLSTVDYNYWGQGTQVTVSS”, for which the “polyreactivity (PSR sort gate)” value is given as “low polyreactivity”.

As for “QVQLVESGGGLVQAGGSLRLSCAASGSIFYSNMGWYRQAPGKEREFFAAISGSGVRTYYADSVKGRFTISRDNAKNTVYLQMNSLKPEDTAVYYCNAGRRQDFRYNYWGHGTQVTVSS”, the “polyreactivity (PSR sort gate)” value is on record as “high polyreactivity”.

On to “QVQLVESGGGLVQAGGSLRLSCAASGSTFDVYAMGWYRQAPGKERELVAVINTSGTRTYYADSVKGRFTISRDNAKNTVYLQMNSLKPEDTAVYYCNAGGHLEMNYWGQGTEVTVSS”, for which the “polyreactivity (PSR sort gate)” value was “low polyreactivity”.

Turning to “QVQLVESGGGLVQAGGSLRLSCAASGSIFYRYVMGWYRQAPGKERELVAVITGSGGNTYYADSVKGRFTISRDNAKNTVYLQMNSLKPEDTAVYYCAARYYTSQYGRHSRYPSEYWGQGTQVTVSS”, the “polyreactivity (PSR sort gate)” value is given as “high polyreactivity”.

Take “QVQLVESGGGLVQAGGSHRLSCAASGRIFRVYVMGWYRQAPGKEREFVAAISRRGSRTYADSVKGRFTISRDNAKNTVYLLMNSLKTEDTAVYYWAAECGYQAHPGQGDYWGQGTQVTVSS”: the “polyreactivity (PSR sort gate)” value was “high polyreactivity”.

Regarding “QVQLVESGGGLVQAGGSLRLSCAASGITFENYAMGWYRQAPGKETELVASITRSGGNTYYADSVKGRFTISRDTAKNSVYLQMNSLKPEDTAVYDCAKDSGLNDDFIYWGQGTQVTVSS”, the “polyreactivity (PSR sort gate)” value was “low polyreactivity”.

With “QVQLVESGGGLVQAGGSLRLSCAASGFIFSSYAMGWYSQAPGKERDLGAAISKSGDRTSYADSVKGRFTISRDNAKNTVYLQMNSLKPEDTAVYYCAKDRLYRTKKYRDMYYWGQGTQVTVSS”, the “polyreactivity (PSR sort gate)” value is recorded as “high polyreactivity”.

For “QVQLQESGGLVQAGGMRLSCEASGSVSYQEAMGWYRQAPGKERELVATISFGANTNYADIVKGRFTISRDNAKNTVYLQMNSLKPEDTAVYYCAAESLFDDYYGYWGQGTQVTVSS”, the “polyreactivity (PSR sort gate)” value was “low polyreactivity”.

As to “QVQLVESGGGLVQAGGSLRLSCAASGFTFRYYAMGWYRQAPGKERELVAAITGSGVNTYYADSVKGRFTISRDNAKNTVYLQMNSLKPEDTAVYYCAAESESDPLFERYYWGQGTQVTVSS”, the “polyreactivity (PSR sort gate)” value is recorded as “high polyreactivity”.

For the sequence “QVQLVESGGGLVQAGGSLRLSCAASGSIFIINAMVWYRQAPGKERELVAAINNGVNTYYADSVKGRFTISRDNAKNTVYLQMNSLKPEDTAGYYCAADYGDPRVNEYDYWGQGTQVTVSS”, the “polyreactivity (PSR sort gate)” value is “low polyreactivity”.

Turning to “QVQLVESGGGLVQAGGSLRLSCAAARYAMGWYRQAPGKERELVAAISKSGGSTYYADSVKGRFTISRDNAKNTVYLQMNSLKPEDTAVYYCAARGHAGRGEYYYWGQGTQVTVSS”, the “polyreactivity (PSR sort gate)” value is “high polyreactivity”.

For the sequence “QVQLVESGGGLVQAGGSLRLSCAASGSTFAYNAMGWYRQAPGKERELVAAISWSGGTTYYADSVKGRFTISRDNAKNTVYLQMNSLKPEDTAVYYCAADVYLNRRQRMYYWGQGTQVTVSS”, the “polyreactivity (PSR sort gate)” value is given as “high polyreactivity”.

As for “QDQLVESGGGLVQAGGSLRLSCAASGIIFGAYAMGWYRQAPGKERELVAAISQSGGSTYYADSVKGRFTISRDNAKITVYLQMNSLKPEDTAVYYCNVDPDVILVTSYDYWGQGTQVTVSS”, the “polyreactivity (PSR sort gate)” value is given as “low polyreactivity”.

Turning to “QVQLVESGGGLVQEGGSLRLSCAASGFISGFYGMGWYRQAPRKEREFVAAIEFIDGDTYYADSVKGRFTISRDNAKNTVYLQMNSLKPEDTAVYYCAADGSFWQFDYWGQGTQVTVSS”, the “polyreactivity (PSR sort gate)” value is given as “low polyreactivity”.

For “QVQLVESGGGLVQAGGSLRLSCAASGRTFSTYAMGWYRQAPGKERELVAAISWRGARTYYADSVKGRFTISRDNAKNTVYLQMNSLKPEDTAVYYCAVRSLVAIRGRAYYYWGQGTQVTVSS”, the “polyreactivity (PSR sort gate)” value was “high polyreactivity”.

On to “QVQLVESGGGLVQAGGSLRLSCAASGRIIDRNAMGWYRQAPGKERELVAAISSSGSTNYADSVKGRFTISRDNAKNTVYLQMNSLKPEVTAVYYCAARWRSVLAAGTRPVSFDYWGQGTQVTVSS”, for which the “polyreactivity (PSR sort gate)” value is recorded as “low polyreactivity”.

The record behind these values is the nanobody polyreactivity screen of Harvey et al. (2022).
